Blank lines part the entries; values can stand above or below the binder they belong to.
Tests used:
Details in all cases: both partners purified
[1] = target: T1, REV7^E35A-SHLD3(1–82)-REV7^K129A (human, UniProt Q9UI95 1-211; Q6ZNX1 1-82; Q9UI95 1-211, E35A | K129A); experiment: SEC; Superdex 200 Increase 10/300 GL, 20 mM Tris/HCl pH 8.0, 150 mM NaCl, 1% glycerol, 1 mM TCEP; proteins mixed and incubated 10 min on ice; 0.5 ml fractions on SDS-PAGE, Coomassie
T1 construct: REV7 (MAD2B, MAD2L2), human, full length; the C-REV7 of the dimer; SHLD3, human, residues 1-82; cloned without His-tag; the O-REV7 of the dimer; also called E35A-1–82 + K129A; reconstituted conformational dimer; source: reconstituted from purified REV7^E35A-SHLD3(1–82) and purified REV7^K129A (both E. coli BL21(DE3)); copies: + +

[2] = target: T2, REV7^K44A-SHLD3(1–82)-REV7^K129A (human, UniProt Q9UI95 1-211; Q6ZNX1 1-82; Q9UI95 1-211, K44A | K129A); experiment: as above
T2 construct: REV7 (MAD2B, MAD2L2), human, full length; the C-REV7 of the dimer; SHLD3, human, residues 1-82; cloned without His-tag; the O-REV7 of the dimer; also called K44A-1–82 + K129A; reconstituted conformational dimer; source: reconstituted from purified REV7^K44A-SHLD3(1–82) and purified REV7^K129A (both E. coli BL21(DE3)); copies: + +

REV7^W171A = target: T3, REV7^W171A (human, UniProt Q9UI95 1-211, W171A); experiment: ITC; ITC200, 25 °C, 20 mM Tris pH 8.0, 150 mM NaCl, 1% glycerol, 1 mM TCEP; one set of sites model
T3 construct: REV7 (MAD2B, MAD2L2), human, full length; source: E. coli BL21(DE3), purified (Ni-IDA, SEC); alone or co-expressed with SHLD3(1-82)

REV7^Y63A = target: T4, REV7^Y63A (human, UniProt Q9UI95 1-211, Y63A); experiment: as above
T4 construct: REV7 (MAD2B, MAD2L2), human, full length; source: E. coli BL21(DE3), purified (Ni-IDA, SEC); alone or co-expressed with SHLD3(1-82)

[3] = target: T5, REV7 (full length, wild type) (human, UniProt Q9UI95 1-211); experiment: as above
T5 construct: REV7 (MAD2B, MAD2L2), human, full length; Two copies (closed C-REV7 and open O-REV7) stand in the crystal structure 6KTO; also called REV7^WT; MAD2B; source: E. coli BL21(DE3), purified (Ni-IDA, SEC); alone or co-expressed with SHLD3 and SHLD2 truncations

REV7^K44A-SHLD3(45–82) = target: T6, REV7^K44A-SHLD3(45–82) (human, UniProt Q9UI95 1-211; Q6ZNX1 45-82, K44A); experiment: as above
T6 construct: REV7 (MAD2B, MAD2L2), human, full length; SHLD3, human, residues 45-82; cloned without His-tag; source: E. coli BL21(DE3), co-expressed (pETduet), purified (Ni-IDA, SEC)

[4] = target: T7, REV7^K44A-SHLD3(1–82)^FIPWFP/AIAAAA (human, UniProt Q9UI95 1-211; Q6ZNX1 1-82, K44A | FIPWFP/AIAAAA); experiment: as above
T7 construct: REV7 (MAD2B, MAD2L2), human, full length; SHLD3, human, residues 1-82; the FXPWFP motif stands at 38-43; cloned without His-tag; also called REV7^K44A-SHLD3(1–82)^5A; source: E. coli BL21(DE3), co-expressed (pETduet), purified (Ni-IDA, SEC)

[5] = target: T8, REV7^K44A-SHLD3(1–82)^F38A (human, UniProt Q9UI95 1-211; Q6ZNX1 1-82, K44A | F38A); experiment: as above
T8 construct: REV7 (MAD2B, MAD2L2), human, full length; SHLD3, human, residues 1-82; cloned without His-tag; source: E. coli BL21(DE3), co-expressed (pETduet), purified (Ni-IDA, SEC)

REV7^K129A = target: T9, REV7^K129A (human, UniProt Q9UI95 1-211, K129A); experiment: as above
T9 construct: REV7 (MAD2B, MAD2L2), human, full length; also called O-REV7 (as used in the ITC and SEC experiments); source: E. coli BL21(DE3), purified (Ni-IDA, SEC); alone or co-expressed with SHLD3(1-82)

[6] = target: T1, REV7^E35A-SHLD3(1–82)-REV7^K129A; experiment: as above
MBP-REV7^K129A = target: T10, MBP-REV7^K129A (human, UniProt Q9UI95 1-211, K129A); experiment: SEC; Superdex 200 Increase 10/300 GL, 20 mM Tris/HCl pH 8.0, 150 mM NaCl, 1% glycerol, 1 mM TCEP; proteins mixed and incubated 10 min on ice; 0.5 ml fractions on SDS-PAGE, Coomassie
T10 construct: REV7 (MAD2B, MAD2L2), human; The cloning of this construct is not described in the methods; also called O-REV7; source: E. coli BL21(DE3), purified (Ni-IDA, SEC)
T10 sequence (Q9UI95 whole entry K129A): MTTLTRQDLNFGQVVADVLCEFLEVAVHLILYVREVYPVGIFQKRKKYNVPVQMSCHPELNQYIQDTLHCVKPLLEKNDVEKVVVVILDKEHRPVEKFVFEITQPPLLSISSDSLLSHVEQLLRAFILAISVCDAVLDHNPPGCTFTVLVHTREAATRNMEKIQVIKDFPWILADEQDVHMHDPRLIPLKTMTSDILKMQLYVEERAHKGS

T1 sequence (Q9UI95 whole entry E35A, chain 1 of 2, the tested form may be a part): as the sequence (Q9UI95 whole entry K129A) above, with E35A, A129K counted along it
T1 sequence (Q9UI95 whole entry K129A, chain 3 of 2, the tested form may be a part): as the sequence (Q9UI95 whole entry K129A) above
T5 sequence (Q9UI95 whole entry, the tested form may be a part): as the sequence (Q9UI95 whole entry K129A) above, with A129K counted along it
T3 sequence (Q9UI95 whole entry W171A): as the sequence (Q9UI95 whole entry K129A) above, with A129K, W171A counted along it
T9 sequence (Q9UI95 whole entry K129A): as the sequence (Q9UI95 whole entry K129A) above
T2 sequence (Q9UI95 whole entry K44A, chain 1 of 2, the tested form may be a part): as the sequence (Q9UI95 whole entry K129A) above, with K44A, A129K counted along it
T2 sequence (Q9UI95 whole entry K129A, chain 3 of 2, the tested form may be a part): as the sequence (Q9UI95 whole entry K129A) above
T6 sequence (Q9UI95 whole entry K44A, the tested form may be a part, one chain of several): as the sequence (Q9UI95 whole entry K129A) above, with K44A, A129K counted along it
T7 sequence (Q9UI95 whole entry K44A, the tested form may be a part, one chain of several): as the sequence (Q9UI95 whole entry K129A) above, with K44A, A129K counted along it
T8 sequence (Q9UI95 whole entry K44A, the tested form may be a part, one chain of several): as the sequence (Q9UI95 whole entry K129A) above, with K44A, A129K counted along it
T4 sequence (Q9UI95 whole entry Y63A): as the sequence (Q9UI95 whole entry K129A) above, with Y63A, A129K counted along it

Kd (REV7^K44A-SHLD3(45–82)): 1400 nM
Kd [4]: 1100 nM
Kd [5]: 6500 nM
B3: cREV1 CTD (chimeric REV1 CTD: POL κ RIR fused to the N-terminus of REV1 CTD) (other, UniProt Q9UBT6 562-577, looked up)
chain: SHKKSFFDKKRSERKWGLSSLQSDPAGCVRPPAPNLAGAVEFNDVKTLLREWITTISDPMEEDILQVVKYCTDLIEEKDLEKLDLVIKYMKRLMQQSVESVWNMAFDFILDNVQVVLQQTYGSTLKVT
notes: source: E. coli BL21(DE3), purified (Ni-IDA, SEC)

binding result (REV7^K129A): binds
Kd [6]: 46 nM
B4: REV3(1847-1906) (domain or fragment, human, UniProt O60673 1847-1906, looked up)
chain: MLTPTPDSSPRSTSSPSQSKNGSFTPRTANILKPLMSPPSREEIMATLLDHDLSETIYQE
notes: amplified from cDNA of Jurkat cells; The methods name two vectors for REV3 truncations (His6-MBP and C-terminal His6); also called RBM1 of REV3; source: E. coli BL21(DE3), purified (Ni-IDA, SEC)

binding result (MBP-REV7^K129A): binds
B5: MBP-REV3(1847-1906) (domain or fragment, human, UniProt O60673 1847-1906, looked up)
chain: B4 chain
notes: Modified pET28a(+) with His6-MBP tag; source: E. coli BL21(DE3), purified (Ni-IDA, SEC)

Further lines, the binder ahead of its results:

B1: MBP-SHLD2(1–60) (domain or fragment, human, UniProt Q86V20 1-60, looked up)
chain: MSGGSQVHIFWGAPIAPLKITVSEDTASLMSVADPWKKIQLLYSQHSLYLKDEKQHKNLE
notes: SHLD2, human, residues 1-60; Modified pET28a(+) with His6-MBP tag; also called MBP-1–60; source: E. coli BL21(DE3), purified (Ni-IDA, SEC); not shown: MBP, N-terminal, kept
binding result [1]: binds
binding result [2]: binds

B2: SHLD3(1–82) with C-terminal His6-tag (domain or fragment, human, UniProt Q6ZNX1 1-82, looked up)
chain: MTTEVILHYRPCESDPTQLPKIAEKAIQDFPTRPLSRFIPWFPYDGSKLPLRPKRSPPVISEEAAEDVKQYLTISEHDAKSH
notes: SHLD3, human, residues 1-82; SHLD3(1-82) expressed alone for biochemical studies (pET28a(+)); source: E. coli BL21(DE3), purified (Ni-IDA, SEC)
Kd (REV7^W171A): ~200 nM
Kd (REV7^Y63A): ~200 nM
Kd [3]: ~130 nM
